According to patent publication US20070274915:

Legend:
[1] = target: T1, bacterially-expressed HHR23A substrate, P54725
T1 chain: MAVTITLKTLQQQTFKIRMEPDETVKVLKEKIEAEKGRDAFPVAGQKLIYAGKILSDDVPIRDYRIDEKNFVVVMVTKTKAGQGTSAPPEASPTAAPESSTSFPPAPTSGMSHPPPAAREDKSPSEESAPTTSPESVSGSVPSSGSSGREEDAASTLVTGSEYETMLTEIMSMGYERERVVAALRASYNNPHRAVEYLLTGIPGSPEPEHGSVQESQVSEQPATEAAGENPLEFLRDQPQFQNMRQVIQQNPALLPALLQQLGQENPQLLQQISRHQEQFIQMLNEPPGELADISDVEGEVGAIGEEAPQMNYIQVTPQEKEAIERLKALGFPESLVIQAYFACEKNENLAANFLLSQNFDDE

B1: E6AP (purified, full-length) (protein)
chain: MKRAAAKHLIERYYHQLTEGCGNEACTNEFCASCPTFLRMDNNAAAIKALELYKINAKLCDPHPSKKGASSAYLENSKGAPNNSCSEIKMNKKGARIDFKDVTYLTEEKVYEILELCREREDYSPLIRVIGRVFSSAEALVQSFRKVKQHTKEELKSLQAKDEDKDEDEKEKAACSAAAMEEDSEASSSRIGDSSQGDNNLQKLGPDDVSVDIDAIRRVYTRLLSNEKIETAFLNALVYLSPNVECDLTYHNVYSRDPNYLNLFIIVMENRNLHSPEYLEMALPLFCKAMSKLPLAAQGKLIRLWSKYNADQIRRMMETFQQLITYKVISNEFNSRNLVNDDDAIVAASKCLKMVYYANVVGGEVDTNHNEEDDEEPIPESSELTLQELLGEERRNKKGPRVDPLETELGVKTLDCRKPLIPFEEFINEPLNEVLEMDKDYTFFKVETENKFSFMTCPFILNAVTKNLGLYYDNRIRMYSERRITVLYSLVQGQQLNPYLRLKVRRDHIIDDALVRLEMIAMENPADLKKQLYVEFEGEQGVDEGGVSKEFFQLVVEEIFNPDIGMFTYDESTKLFWFNPSSFETEGQFTLIGIVLGLAIYNNCILDVHFPMVVYRKLMGKKGTFRDLGDSHPVLYQSLKDLLEYEGNVEDDMMITFQISQTDLFGNPMMYDLKENGDKIPITNENRKEFVNLYSDYILNKSVEKQFKAFRRGFHMVTNESPLKYLFRPEEIELLICGSRNLDFQALEETTEYDGGYTRDSVLIREFWEIVHSFTDEQKRLFLQFTTGTDRAPVGGLGKLKMIIAKNGPDTERLPTSHTCFNVLLLPEYSSKEKLKERLLKAITYAKGFGML
[1]
  trans-ubiquitination of HHR23A (in vitro reaction with E1, E2 UbcH7, ubiquitin and ATP; SDS-PAGE, anti-HHR23A immunoblot): time-dependent increase in the amount of ubiquitin-conjugated HHR23A substrate

B2: myc-tagged Nedd4 isoform (accession number KIAA0093) (protein)
chain: MATCAVEVFGLLEDEENSRIVRVRVIAGIGLAKKDILGASDPYVRVTLYDPMNGVLTSVQTKTIKKSLNPKWNEEILFRVHPQQHRLLFEVFDENRLTRDDFLGQVDVPLYPLPTENPRLERPYTFKDFVLHPRSHKSRVKGYLRLKMTYLPKTSGSEDDNAEQAEELEPGWVVLDQPDAACHLQQQQEPSPLPPGWEERQDILGRTYYVNHESRRTQWKRPTPQDNLTDAENGNIQLQAQRAFTTRRQISEETESVDNRESSENWEIIREDEATMYSNQAFPSPPPSSNLDVPTHLAEELNARLTIFGNSAVSQPASSSNHSSRRGSLQAYTFEEQPTLPVLLPTSSGLPPGWEEKQDERGRSYYVDHNSRTTTWTKPTVQATVETSQLTSSQSSAGPQSQASTSDSGQQVTQPSEIEQGFLPKGWEVRHAPNGRPFFIDHNTKTTTWEDPRLKIPAHLRGKTSLDTSNDLGPLPPGWEERTHTDGRIFYINHNIKRTQWEDPRLENVAITGPAVPYSRDYKRKYEFFRRKLKKQNDIPNKFEMKLRRATVLEDSYRRIMGVKRADFLKARLWIEFDGEKGLDYGGVAREWFFLISKEMFNPYYGLFEYSATDNYTLQINPNSGLCNEDHLSYFKFIGRVAGMAVYHGKLLDGFFIRPFYKMMLHKPITLHDMESVDSEYYNSLRWILENDPTELDLRFIIDEELFGQTHQHELKNGGSEIVVTNKNKKEYIYLVIQWRFVNRIQKQMAAFKEGFFELIPQDLIKIFDENELELLMCGLGDVDVNDWREHTKYKNGYSANHQVIQWFWKAVLMMDSEKRIRLLQFVTGTSRVPMNGFAELYGSNGPQSFTVEQWGTPEKLPRAHTCFNRLDLPPYESFEELWDKLQMAIENTQGFDGVD
AU-tagged PLC-γ1
AU-tagged PLC-γ1, sequence (P19174 2-1290): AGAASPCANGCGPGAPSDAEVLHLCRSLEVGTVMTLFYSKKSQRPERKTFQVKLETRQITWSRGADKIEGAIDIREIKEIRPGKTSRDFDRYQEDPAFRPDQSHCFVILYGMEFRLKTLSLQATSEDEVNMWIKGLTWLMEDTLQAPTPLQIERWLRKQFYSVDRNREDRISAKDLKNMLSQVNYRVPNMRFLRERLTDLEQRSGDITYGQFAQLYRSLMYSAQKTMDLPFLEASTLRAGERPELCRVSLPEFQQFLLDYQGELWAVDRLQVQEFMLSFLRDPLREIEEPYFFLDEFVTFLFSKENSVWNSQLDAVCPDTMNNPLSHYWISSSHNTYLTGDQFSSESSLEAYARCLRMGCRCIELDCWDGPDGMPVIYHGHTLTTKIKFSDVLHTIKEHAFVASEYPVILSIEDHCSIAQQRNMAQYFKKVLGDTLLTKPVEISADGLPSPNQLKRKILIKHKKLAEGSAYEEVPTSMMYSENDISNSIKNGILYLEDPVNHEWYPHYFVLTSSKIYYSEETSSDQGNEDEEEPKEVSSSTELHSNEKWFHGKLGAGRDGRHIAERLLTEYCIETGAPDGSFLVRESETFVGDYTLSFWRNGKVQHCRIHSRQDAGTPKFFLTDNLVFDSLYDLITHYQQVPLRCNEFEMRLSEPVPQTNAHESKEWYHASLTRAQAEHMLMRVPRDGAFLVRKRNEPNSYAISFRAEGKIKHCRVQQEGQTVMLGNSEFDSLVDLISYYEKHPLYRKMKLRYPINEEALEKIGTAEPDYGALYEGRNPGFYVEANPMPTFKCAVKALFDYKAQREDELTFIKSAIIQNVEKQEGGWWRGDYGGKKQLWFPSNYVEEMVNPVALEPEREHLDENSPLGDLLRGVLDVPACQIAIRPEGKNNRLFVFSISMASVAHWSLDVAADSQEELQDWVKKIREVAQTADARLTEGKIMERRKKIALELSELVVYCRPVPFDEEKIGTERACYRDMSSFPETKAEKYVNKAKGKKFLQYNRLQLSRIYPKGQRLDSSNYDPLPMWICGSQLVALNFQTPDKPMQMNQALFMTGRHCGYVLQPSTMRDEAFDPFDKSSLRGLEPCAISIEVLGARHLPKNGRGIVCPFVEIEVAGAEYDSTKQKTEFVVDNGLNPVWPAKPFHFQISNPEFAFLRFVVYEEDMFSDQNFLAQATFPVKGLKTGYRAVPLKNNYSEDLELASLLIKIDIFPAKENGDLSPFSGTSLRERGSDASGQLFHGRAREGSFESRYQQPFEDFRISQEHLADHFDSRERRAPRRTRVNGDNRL
  ionomycin-dependent degradation of PLC-γ1 (HEK 293 transfection, immunoblot): Itch and Nedd4 both facilitated the ionomycin-dependent degradation of PLC-γ1

B3: catalytically inactive Nedd4 protein, bearing an alanine substitution at the active cysteine of the HECT domain (protein)
chain: B2 chain
AU-tagged PLC-γ1
  ionomycin-dependent degradation of PLC-γ1 (HEK 293 transfection, immunoblot): did not promote this decrease (FIG. 17D; lanes 5, 6), but prevented the small but significant decrease in PLC-γ1 levels observed in ionomycin-treated cells
